For test [1], the target named is HLA-A*03:01. As to the kind of experiment: IEDB peptide-MHC binding, purified MHC/competitive/fluorescence; filed as Kd, often an IC50 or EC50 that approximates it; ≥ and ≤ were set here for values at or beyond the usual limits of such assays. As to conditions: source organism: Bacillus cereus G9241.
In test [2] the target is HLA-A*31:01. The test is described as above.
In test [3] the target is HLA-C*12:03. As to the kind of experiment: IEDB peptide-MHC binding, purified MHC/direct/fluorescence; filed as Kd, often an IC50 or EC50 that approximates it; ≥ and ≤ were set here for values at or beyond the usual limits of such assays.
For test [4], the target named is HLA-A*01:01. As to the kind of experiment: IEDB peptide-MHC binding, purified MHC/competitive/fluorescence; filed as Kd, often an IC50 or EC50 that approximates it; ≥ and ≤ were set here for values at or beyond the usual limits of such assays. As to conditions: source organism: Yersinia pestis Antiqua.
Test [5] has as its target HLA-A*26:01. The test is described as above. The settings on record: source organism: Yersinia pestis Antiqua.
Test [6] addresses HLA-B*35:01. The test is described as above. The settings on record: source organism: Yersinia pestis Antiqua.
The target of test [7] is HLA-A*24:03. The test is described as above. As to conditions: source organism: Bacillus anthracis str. A0488.
Test [8] has as its target HLA-A*02:01. As to the kind of experiment: IEDB peptide-MHC binding, purified MHC/competitive/radioactivity; filed as Kd, often an IC50 or EC50 that approximates it; ≥ and ≤ were set here for values at or beyond the usual limits of such assays.
In test [9] the target is HLA-A*02:02. Described as above.
Test [10] concerns the target HLA-A*02:03. The test is described as above.
The target in test [11] is HLA-A*02:06. Described as above.
Test [12] addresses HLA-A*03:01. The description is as above.
In test [13] the target is HLA-A*11:01. The description is as above.
Test [14] has as its target HLA-A*31:01. Described as above.
Test [15] concerns the target HLA-A*33:01. The test is described as above.
For test [16], the target named is HLA-A*68:01. The description is as above.
Test [17] deals with HLA-A*68:02. The test is described as above.
Test [18] has as its target HLA-B*07:02. The test is described as above.
In test [19] the target is HLA-B*35:01. The test is described as above.
For test [20], the target named is HLA-B*51:01. The test is described as above.
Test [21] deals with HLA-B*53:01. Described as above.
The target in test [22] is HLA-B*54:01. Described as above.
Test [23] deals with HLA-A*03:01. The test can be described thus: IEDB peptide-MHC binding, purified MHC/direct/fluorescence; filed as Kd, often an IC50 or EC50 that approximates it; ≥ and ≤ were set here for values at or beyond the usual limits of such assays.
The target in test [24] is HLA-A*11:01. Described as above.
Test [25] has as its target HLA-A*01:01. As to the kind of experiment: IEDB peptide-MHC binding, purified MHC/competitive/radioactivity; filed as Kd, often an IC50 or EC50 that approximates it; ≥ and ≤ were set here for values at or beyond the usual limits of such assays. As to conditions: source organism: Hepatitis C virus (isolate H).
In test [26] the target is HLA-B*08:01. The description is as above. The settings on record: source organism: Hepatitis C virus (isolate H).
In test [27] the target is HLA-B*18:01. Described as above. The settings on record: source organism: Hepatitis C virus (isolate H).
The target of test [28] is HLA-B*40:01. The test is described as above. As to conditions: source organism: Hepatitis C virus (isolate H).
Test [29] concerns the target HLA-B*40:02. The description is as above. The settings on record: source organism: Hepatitis C virus (isolate H).
The target in test [30] is HLA-B*44:02. The test is described as above. As to conditions: source organism: Hepatitis C virus (isolate H).
Test [31] addresses HLA-B*44:03. Described as above. The settings on record: source organism: Hepatitis C virus (isolate H).
Test [32] addresses HLA-B*51:01. The test can be described thus: IEDB peptide-MHC binding, purified MHC/competitive/fluorescence; filed as Kd, often an IC50 or EC50 that approximates it; ≥ and ≤ were set here for values at or beyond the usual limits of such assays. The settings on record: source organism: Rickettsia felis URRWXCal2.
[33] abbreviates: source organism: Yersinia pestis Antiqua.
The mark [34] stands for this setting: source organism: Vaccinia virus WR.
Setting [35] is: source organism: Escherichia coli O157:H7.
Where [36] appears, read: source organism: Yersinia enterocolitica.
Setting [37] is: source organism: Hepatitis C virus (isolate H).

One may read the Kd as the constant that tells how readily two partners part at equilibrium.

For ILIFLRNFR, the equilibrium dissociation constant (Kd) in test [1] was at least 20000 nM; in [2] (source organism: Bacillus cereus G9241), 5.1 nM.
With FASSRMSTY, the dissociation constant Kd was at most 1 nM in test [3] (setting [33]), 979 nM in test [4], 223 nM in [5] and 0.2 nM in test [6].
With QFMEGIYKL, the equilibrium dissociation constant (Kd) in test [7] amounted to 4.1 nM.
TFMIITSTK: the dissociation constant (Kd) in [8] (setting [34]) was at least 78100 nM; in test [9] (setting [34]), at least 63700 nM; in [10] (setting [34]), at least 30800 nM; in test [11] (setting [34]), at least 77100 nM; in [12] (setting [34]), 404 nM; in test [13] (setting [34]) it was 189 nM. The dissociation constant (Kd) in [14] (setting [34]) is 367 nM; in [15] (setting [34]), 619 nM; in test [16] (setting [34]), 104 nM; in [17] (setting [34]) it was at least 76900 nM; in [18] (setting [34]), at least 77500 nM; in test [19] (setting [34]), 19700 nM. The figures for the dissociation constant Kd in [20] (setting [34]), in [21] (setting [34]) and in test [22] (setting [34]) were at least 77500 nM, at least 78200 nM and at least 42600 nM, respectively.
Consider GMLVGRLGK, for which the dissociation constant Kd was 29.3 nM in test [23] (setting [35]), 191 nM in [24] (setting [35]) and 13.7 nM in [2] (source organism: Escherichia coli O157:H7 str. Sakai).
For the sequence KLAETRMGY, the values for the Kd in test [23] (setting [35]), in test [24] (setting [35]) and in test [2] (source organism: Escherichia coli) were 71.1 nM, 932 nM and 153 nM, respectively.
Regarding RAFKYPFIK, the Kd was found to be 6.8 nM in test [23] (source organism: Fowlpox virus), 1.7 nM in test [24] (source organism: Fowlpox virus) and 60 nM in [2] (source organism: Fowlpox virus).
For TVWNRLIAR, the values for the Kd in test [23] (setting [36]), in [24] (setting [36]) and in test [2] (setting [33]) were 39.3 nM, 32.6 nM and at most 1 nM, respectively.
HPALVFDITK: the Kd in test [25] was 6400 nM; in [8] (setting [37]), at least 69400 nM; in test [9] (setting [37]), at least 47200 nM; in test [10] (setting [37]), 7410 nM; in test [11] (setting [37]), at least 69800 nM; in [12] (setting [37]), 4200 nM. The Kd was 862 nM in test [13] (setting [37]); at least 70000 nM in test [14] (setting [37]); at least 38400 nM in test [15] (setting [37]); 2.32 nM in [16] (setting [37]); at least 69800 nM in test [17] (setting [37]); 3040 nM in test [18] (setting [37]). Also, the Kd in [26] was at least 52100 nM; in [27], at least 28200 nM; in test [19] (setting [37]), 433 nM; in [28] it was at least 69600 nM; in [29], at least 70800 nM; in test [30], at least 70200 nM. The Kd is at least 63300 nM in test [31], at least 69600 nM in test [20] (setting [37]), 478 nM in test [21] (setting [37]) and 130 nM in [22] (setting [37]).
Turning to KVFSFWLLCK, the dissociation constant Kd in test [8] (setting [34]) was 1190 nM; in [9] (setting [34]), 4250 nM; in [10] (setting [34]), 3360 nM; in test [11] (setting [34]), 8660 nM; in test [12] (setting [34]), 6.3 nM; in test [13] (setting [34]), 3.27 nM. For the same sequence, the equilibrium dissociation constant (Kd) in test [14] (setting [34]) was 9.25 nM; in test [15] (setting [34]), 863 nM; in test [16] (setting [34]) it was 42.8 nM; in test [17] (setting [34]), at least 49400 nM; in test [18] (setting [34]), at least 44900 nM; in test [19] (setting [34]), at least 47400 nM. The Kd was 17000 nM in test [20] (setting [34]), 2340 nM in [21] (setting [34]) and 2550 nM in test [22] (setting [34]).
In the case of IAYESSNKI, the Kd stood at 7 nM in test [3] (source organism: Rickettsia felis URRWXCal2) and 196 nM in test [32].
IAMESIVIW returned a Kd in [3] (source organism: Human immunodeficiency virus 1) of at most 1 nM.
